Measured values taken from publication PMC2203988.

Test system: U1A N-terminal RRM
Assay: EMSA
Conditions: 10 mM Tris-HCl pH 7.4, 250 mM NaCl, 1 mM EDTA, 0.5% Triton X-100, 1 mg/mL tRNA, 25 pM RNA, at least 45 min, gel at 25 C (A6P, A6c1A and A6G of Table 3 omitted: …)

Substance: A1G SL2 RNA
- Kd: 1.4 µM

Substance: G4I SL2 RNA
- Kd (loop G4 to inosine): 0.003 µM

Substance: A1DAP SL2 RNA
- Kd (loop A1 to 2,6-diaminopurine (DAP)): 0.04 µM

Substance: G4DAP SL2 RNA
- Kd (loop G4 to 2,6-diaminopurine (DAP)): 2 µM

Substance: A1-2AP SL2 RNA
- Kd (loop A1 to 2-aminopurine): 0.04 µM

Substance: A1P SL2 RNA
- Kd (loop A1 to purine (6-NH2 replaced by H)): 0.0009 µM

Substance: G4-2AP SL2 RNA
- Kd (loop G4 to 2-aminopurine): 4 µM

Substance: A1G/C10A SL2 RNA
- Kd: 1.3 µM

Substance: A6DAP SL2 RNA
- Kd (loop A6 to 2,6-diaminopurine (DAP)): 0.11 µM

Substance: A6-2AP SL2 RNA
- Kd (loop A6 to 2-aminopurine): 0.7 µM

Substance: A6I SL2 RNA
- Kd (loop A6 to inosine): 8 µM

Substance: G4dG SL2 RNA
- Kd (loop G4 to 2'-deoxyguanosine): 0.00011 µM

Substance: C10A SL2 RNA
- Kd: 0.0006 µM

Substance: G4c7dG SL2 RNA
- Kd (loop G4 to 7-deaza-2'-deoxyguanosine (c7dG)): 0.031 µM

Substance: WT SL2 RNA
- Kd: 0.0003 µM

Substance: A1I SL2 RNA
- Kd (loop A1 to inosine): 0.016 µM

Substance: A1c1A SL2 RNA
- Kd (loop A1 to 1-deazaadenosine (c1A)): 0.0007 µM

Substance: G4A SL2 RNA
- Kd: 11 µM
